Results taken from publication PMC11676163, “Comparison of Two Chelator Scaffolds as Basis for Cholecystokinin-2 Receptor Targeting Bimodal Imaging Probes” (Pharmaceuticals, 2024).
Values joined by “and” are separate entries in the source; they are usually repeats but may differ in a detail not shown here. Equal entries are not always repeated.

Tests used:
A431-mock cells = experiment: Cell uptake studies on A431-mock cells; assay type: cell-based, human; settings: 0.5 nM, 1 h, 37 °C
Excerpt: (§1) The human squamous carcinoma cell line A431 transfected with human CCK2R (A431-CCK2R) and with the empty vector alone (A431-mock) were originally provided by Dr. Luigi Aloj (Nuclear Medicine Unit, Istituto Nazionale per lo Studio e la Cura dei Tumori “Fondazione Giovanni Pascale”-IRCCS, Naples, Italy). All cell culture media and reagents were purchased from Gibco, Invitrogen (Thermo Fisher Scientific, Vienna, Austria), or Sigma-Aldrich (Darmstadt, Germany) Corporation. Dulbecco's Modified Eagle's medium (DMEM) supplemented with 10% (v/v) fetal bovine serum, FBS (10270, Invitrogen, Thermo Fisher Scientific, Waltham, MA, USA), and 1% (v/v) penicillin-streptomycin-glutamine, PSG (10378, Gibco, Thermo Fisher Scientific, Waltham, MA, USA), was used for cell culture. The cells were grown at 37 °C in a humidified atmosphere with 5% carbon dioxide and were passaged 3 times per week using a 2.5% trypsin-EDTA solution. The cell internalization of the radiolabelled compounds was measured on A431-CCK2R and A431-mock cells. A total of 1.0 × 10^6 cells per well were seeded in 6-well culture plates (Greiner Cellstar, Sigma-Aldrich […] GmbH, Vienna, Austria) and grown for 48 h. On the day of the experiment, each well was washed twice with internalization medium (culturing medium supplemented with 1% (v/v) FBS) and then incubated with 0.5 nM of a radioactive compound for 1 h at 37 °C. After the incubation, the medium was removed and the cells rinsed with 2 × 1 mL of PBS/0.5% (w/v) bovine serum albumin (BSA). Thereafter, they were washed twice with 1 mL of 50 mM glycine buffer (pH 2.8) with 0.1 M NaCl to remove the membrane-bound radiocompound. Finally, the cells were lysed with 2 × 1 mL of 1 M NaOH to determine the internalized radioligand. All fractions were measured in the γ-counter and the percentage of internalized and membrane-bound radiocompounds in relation to the total radioactivity added to the cells was reported.

physchem = assay type: physicochemical; settings: buffer or solvent, pH 7.4
Protocol: For stability and protein binding studies, the labelling solutions were diluted with PBS or human serum to a concentration of 0.5 µM and incubated at 37 °C for 1 h, 2 h, and 4 h (n = 3). In the case of serum stability for each timepoint, 100 uL of the incubated solution was diluted 1:1 with ACN to make the proteins precipitate and the solution was centrifuged for 2 min at 14,000× g rpm. A total of 100 uL of the supernatant was then diluted 1:1 with water and analyzed by radio-HPLC. For stability in PBS, 100 uL of the incubated solution was diluted 1:1 with water and analyzed by radio-HPLC for every timepoint.

[1] = test system: A431-CCK2R / A431-mock xenografts; assay type: in vivo, mouse; settings: for Time after injection from which cancerous tissue could be well delineated by fluorescence imaging: A431-CCK2R xenografts, 0.3 nmol; for Persistence of fluorescence signal in the kidneys: mouse, in vivo
Protocol: (§2) For the induction of tumour xenografts, 2 × 10^6 of A431-CCK2R or A431-mock cells in 200 μL appropriate medium and Matrigel (1:1) were subcutaneously injected in the right and left flank of each mouse (athymic BALB/c nude), respectively. The tumours were allowed to grow until they had reached a volume of 0.3 to 0.6 cm^3. To evaluate ex vivo biodistribution on tumour models, 3 mouse xenografts were injected with 0.05 nmol of radiotracer (1 MBq) and then sacrificed after 2 h. For the comparative imaging study (PET/CT and in vivo fluorescence imaging), 2 xenograft-bearing mice were injected with 0.3 nmol (6 MBq) of radiotracer. Static PET/CT images of the anesthetized animals in prone position were acquired with a Mediso NanoScan PET/CT small-animal imaging system (Mediso Medical Imaging Systems, Budapest, Hungary) at 1, 2, and 3 h p.i. Image reconstruction was performed via Mediso Tera-Tomo 3D PET iterative reconstruction (Mediso Medical Imaging Systems, Budapest, Hungary). The images were visualized, processed, and quantified in Mediso InterView FUSION (Mediso Medical Imaging Systems, Budapest, Hungary). Quantitative analyses were performed on images of 3 mouse xenografts per compound. The images were normalized to injected activity and animal weight. The results were expressed as percentages of injected dose per gram tissue (% ID/g).
Near-infrared in vivo fluorescence imaging was conducted with an in vivo MS FX PRO small-animal imaging system (Bruker Biospin Corporation, Woodbridge, CT, USA) and image analysis was performed with Bruker MI SE software v. 7.1.1.20220 (Bruker Biospin Corporation, Woodbridge, CT, USA). The mice were positioned in the system in supine position and scanned at various time intervals up to 72 h p.i. by using an appropriate filter set (excitation = 650 nm and emission = 700 nm) and identical illumination settings (acquisition time = 30 s, f-stop = 2.8, field of view = 100 mm, and binning = 4 × 4). The fluorescence emission was reported as photons/s/mm^2.

A431-CCK2R cells = experiment: Cell uptake studies on A431-CCK2R cells; assay type: cell-based, human; settings: 0.5 nM, 1 h, 37 °C
Excerpt: as §1

in vivo [2] = settings: BALB/c, mouse, total radioactivity
Protocol: For the ex vivo biodistribution study on healthy BALB/c mice, 3 animals per group were injected with 0.14 nmol of radiotracer (1.5 MBq) and then sacrificed after 1, 2, and 4 h. The organs of interest were extracted, weighed, and measured in the γ-counter. Results were expressed as percentages of injected dose per gram tissue (% ID/g).

[3] = Distribution coefficient (LogD pH7.4), octan-1-ol/PBS; assay type: physicochemical; settings: octan-1-ol/PBS pH 7.4, n = 6
Protocol: For lipophilicity determination, [^68Ga]Ga-CyTMG and [^68Ga]Ga-CyFMG labelling solutions were diluted with phosphate-buffered saline (PBS, pH7.4) to a concentration of 0.1 µM. A total of 300 µL of this solution was added to an Eppendorf tube containing 300 µL of octan-1-ol. The mixture was shaken at 1400 rpm and at RT for 15 min and centrifuged at 4500× g rpm for 2 min for phase separation. Afterwards, 100 µL of the organic phase and of the aqueous phase were taken out and the activities of the aliquots were quantified in a γ-counter (n = 6). The LogD values were calculated with the following formula:(1) LogDpH7.4=log10  CPMoctanol phase/CPM PBS phase

[4] = test system: A431-CCK2R / A431-mock xenografts; experiment: in vivo; settings: mouse
Protocol: as §2

in vivo [5] = settings: athymic BALB/c nude, mouse, total radioactivity
Protocol: as §2

CCK2 receptor = target: T1, CCK2 receptor (Homo sapiens, UniProt P32239); experiment: Receptor-binding affinity, competition against [^177Lu]Lu-DOTA-MGS5 on A431-CCK2R cells; settings: metal-free compounds, vs [^177Lu]Lu-DOTA-MGS5, 1 h RT
T1 construct: expressed in transfected cells; host or cells: A431 human squamous carcinoma cells (A431-CCK2R), provided by Dr. Luigi Aloj
T1 sequence (P32239 1-447): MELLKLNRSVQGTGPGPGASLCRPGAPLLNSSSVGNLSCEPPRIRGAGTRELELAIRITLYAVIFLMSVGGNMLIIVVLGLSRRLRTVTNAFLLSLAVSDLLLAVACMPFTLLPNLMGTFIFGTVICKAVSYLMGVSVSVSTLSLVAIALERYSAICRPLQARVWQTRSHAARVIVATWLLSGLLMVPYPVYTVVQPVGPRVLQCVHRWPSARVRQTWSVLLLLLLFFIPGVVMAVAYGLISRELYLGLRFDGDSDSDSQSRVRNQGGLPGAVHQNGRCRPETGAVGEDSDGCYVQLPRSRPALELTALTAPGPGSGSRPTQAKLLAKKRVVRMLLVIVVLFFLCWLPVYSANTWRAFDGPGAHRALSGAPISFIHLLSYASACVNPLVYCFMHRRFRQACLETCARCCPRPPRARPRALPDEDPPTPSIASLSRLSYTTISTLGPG
Protocol: A total of 5 µg of DOTA-MGS5 were radiolabelled with 20 µL of [^177Lu]LuCl3 solution (300–400 MBq; 90–95 GBq/µmol) and 30 µL of 0.4 M sodium acetate/0.24 M gentisic acid solution with pH 5. The labelling mixture was heated at 90 °C for 20 min. At the end, the solution was diluted to a concentration of 200 nM and stored in a freezer for further use. Binding assays were carried out in 96-well filter plates (Multi-ScreenHTS-FB, Merck Group, Darmstadt, Germany) pretreated with 10 mM TRIS/139 mM NaCl buffer at pH 7.4 (TRIS-buffer) (2 × 250 μL) before 400,000 A431-CCK2R cells per well were added in 20 mM HEPES buffer at pH 7.4 containing 10 mM MgCl2, 14 μM bacitracin, and 0.5% (w/v) bovine serum albumin (BSA) (binding assay buffer). Competition assays were performed two times in triplicate using increasing concentrations of competitors (0.001–1,000 nM) and a constant amount of radioligands (~30,000 cpm, 0.3 nM). After 1 h of incubation at room temperature (RT), the medium was removed by vacuum filtration and the filters were rapidly rinsed with ice-cold binding assay buffer (2 × 200 μL), removed, and counted in the γ-counter. Half-maximal inhibitory concentration (IC50) values were calculated following non-linear regression with Origin software (MicroCal Origin 6.1, Northampton, MA, USA).

[6] = Accumulation of radioactivity in A431-CCK2R xenografts
[7] = Accumulation of radioactivity in A431-mock tumours

In the case of `CCCC[C@@H](C(=O)N[C@@H](CC(=O)O)C(=O)N[C@@H](Cc1cccc2ccccc12)C(N)=O)N(C)C(=O)[C@H](Cc1c[nH]c2ccccc12)NC(=O)CCOCCOCCOCCOCCn1cc(CNC(=O)CCP(=O)(O)CN2CCN(CP(=O)(O)CCC(=O)NCc3cn(CCCNC(=O)CCCCC[N+]4=C(C=CC=CC=C5N(C)c6ccc7c(S(=O)(=O)O)cc(S(=O)(=O)O)cc7c6C5(C)C)C(C)(C)c5c4ccc4c(S(=O)(=O)O)cc(S(=O)(=O)O)cc54)nn3)CCN(CP(=O)(O)CCC(=O)NCc3cn(CCOCCOCCOCCOCCC(=O)N[C@@H](Cc4c[nH]c5ccccc45)C(=O)N(C)[C@@H](CCCC)C(=O)N[C@@H](CC(=O)O)C(=O)N[C@@H](Cc4cccc5ccccc45)C(N)=O)nn3)CC2)nn1` (single isomer, unassigned) [[^68Ga]Ga-CyTMG, metal not drawn], the “Internalized fraction, % of total activity” value (“Internalized fraction, %” below) (A431-mock cells) is reported as 0.2%, the “Membrane bound, % of total activity” value (A431-mock cells) is reported as 0.5% and the remaining at 1 h, 0.5 µM (physchem) is reported as 97.98 ± 0.2%. The remaining at 2 h, 0.5 µM (physchem) was 97.56 ± 0.09%, the remaining at 4 h, 0.5 µM (physchem) was 96.7 ± 1.15% and the “Time after injection from which cancerous tissue could be well delineated by fluorescence imaging” value [1] was no less than 1 h. The “Persistence of fluorescence signal in the kidneys” value [1] was “up to 72 h”, the “Internalized fraction, %” value (A431-CCK2R cells) was 10.59 ± 0.40% and 10.6% and the “Membrane bound, % of total activity” value (A431-CCK2R cells) was 0.8%. It also gave a tissue uptake at 1 h (in vivo [2]) of 75.8 ± 3.88 %ID/g, a tissue uptake at 2 h (in vivo [2]) of 124 ± 6.46 %ID/g and a tissue uptake at 4 h (in vivo [2]) of 173 ± 13 %ID/g. For the same compound, the “LogDpH7.4 ± SD” value [3] was −1.78 ± 0.16, the “Ratio of CCK2R-positive tumours and A431-mock xenografts” value [4] was 2.63 and the tissue uptake at 2 h (in vivo [5]; 0.05 nmol, Kidney uptake) was 119 ± 9.12 %ID/g. The tissue uptake at 2 h (in vivo [5]; [6]) was 6.47 ± 1.47 %ID/g and the tissue uptake at 2 h (in vivo [5]; [7]) was 2.46 ± 0.4 %ID/g.
In the case of `CCCC[C@@H](C(=O)N[C@@H](CC(=O)O)C(=O)N[C@@H](Cc1cccc2ccccc12)C(N)=O)N(C)C(=O)[C@H](Cc1c[nH]c2ccccc12)NC(=O)CCOCCOCCOCCOCCn1cc(CCC(=O)N[C@H]2CCCN(O)C(=O)/C=C(/C)CCOC(=O)[C@@H](NC(=O)CCc3cn(CCOCCOCCOCCOCCC(=O)N[C@@H](Cc4c[nH]c5ccccc45)C(=O)N(C)[C@@H](CCCC)C(=O)N[C@@H](CC(=O)O)C(=O)N[C@@H](Cc4cccc5ccccc45)C(N)=O)nn3)CCCN(O)C(=O)/C=C(/C)CCOC(=O)[C@@H](NC(=O)CCc3cn(CCCNC(=O)CCCCC[N+]4=C(/C=C/C=C/C=C5/N(C)c6ccc7c(S(=O)(=O)O)cc(S(=O)(=O)[O-])cc7c6C5(C)C)C(C)(C)c5c4ccc4c(S(=O)(=O)O)cc(S(=O)(=O)O)cc54)nn3)CCCN(O)C(=O)/C=C(/C)CCOC2=O)nn1` [[^68Ga]Ga-CyFMG, metal not drawn], the “Internalized fraction, %” value (A431-mock cells) is reported as 1.3%, the “Membrane bound, % of total activity” value (A431-mock cells) is reported as 0.7% and the remaining at 1 h, 0.5 µM (physchem) is reported as 99.1 ± 1.07%. The remaining at 2 h, 0.5 µM (physchem) was 98.57 ± 0.47%, the remaining at 4 h, 0.5 µM (physchem) was 99.3 ± 0.71% and the “Time after injection from which cancerous tissue could be well delineated by fluorescence imaging” value [1] was no less than 3 h. The “Persistence of fluorescence signal in the kidneys” value [1] was “visibly declined from 24 h to disappear completely at 72 h after injection”, the “Internalized fraction, %” value (A431-CCK2R cells) was 24.48 ± 1.33% and 24.5% and the “Membrane bound, % of total activity” value (A431-CCK2R cells) was 0.9%. It also gave a tissue uptake at 1 h (in vivo [2]) of 45.9 ± 3.03 %ID/g, a tissue uptake at 2 h (in vivo [2]) of 59.3 ± 5.04 %ID/g and a tissue uptake at 4 h (in vivo [2]) of 74.3 ± 11.7 %ID/g. For the same compound, the “LogDpH7.4 ± SD” value [3] was −1.53 ± 0.10, the “Ratio of CCK2R-positive tumours and A431-mock xenografts” value [4] was 3.94 and the tissue uptake at 2 h (in vivo [5]; 0.05 nmol, Kidney uptake) was 50.7 ± 8.42 %ID/g. The tissue uptake at 2 h (in vivo [5]; [6]) was 4.02 ± 1.64 %ID/g and the tissue uptake at 2 h (in vivo [5]; [7]) was 1.02 ± 0.13 %ID/g.
In the case of `CCCC[C@@H](C(=O)N[C@@H](CC(=O)O)C(=O)N[C@@H](Cc1cccc2ccccc12)C(N)=O)N(C)C(=O)[C@H](Cc1c[nH]c2ccccc12)NC(=O)CCOCCOCCOCCOCCn1cc(CNC(=O)CCP(=O)(O)CN2CCN(CP(=O)(O)CCC(=O)NCc3cn(CCCNC(=O)CCCCC[N+]4=C(C=CC=CC=C5N(C)c6ccc7c(S(=O)(=O)O)cc(S(=O)(=O)O)cc7c6C5(C)C)C(C)(C)c5c4ccc4c(S(=O)(=O)O)cc(S(=O)(=O)O)cc54)nn3)CCN(CP(=O)(O)CCC(=O)NCc3cn(CCOCCOCCOCCOCCC(=O)N[C@@H](Cc4c[nH]c5ccccc45)C(=O)N(C)[C@@H](CCCC)C(=O)N[C@@H](CC(=O)O)C(=O)N[C@@H](Cc4cccc5ccccc45)C(N)=O)nn3)CC2)nn1` (single isomer, unassigned) [CyTMG], the IC50 (CCK2 receptor) is reported as 240 ± 160 pM.
